{"source": "paper PMC2733745", "about": "(The Journal of Cell Biology, 2009)", "binders": {"B1": {"name": "Fab fragment of the anti–αV propeller mAb 17E6 (Fab, V domains shown)", "VH": "QVQLQQSGAELAEPGASVKMSCKASGYTFSSFWMHWVKQRPGQGLEWIGYINPRSGYTECNEIFRDKATMTADTSSSTAYMQLSGLTSEDSAVYYCASFLGRGAMDYWGQGTSVTVSS", "VL": "DIQMTQTTSSLSASLGDRVIISCRASQDISNYLSWYQQKPDGTVKLLIFYTSKLHSGVPSRFSGSGSGTDYSLTISNLDQEDIATYFCQQGNTFPYTFGGGTKVEMR"}, "B2": {"name": "1TM-αVβ3 (complex)", "chain 1": "FNLDVDSPAEYSGPEGSYFGFAVDFFVPSASSRMFLLVGAPKANTTQPGIVEGGQVLKCDWSSTRRCQPIEFDATGNRDYAKDDPLEFKSHQWFGASVRSKQDKILACAPLYHWRTEMKQEREPVGTCFLQDGTKTVEYAPCRSQDIDADGQGFCQGGFSIDFTKADRVLLGGPGSFYWQGQLISDQVAEIVSKYDPNVYSIKYNNQLATRTAQAIFDDSYLGYSVAVGDFNGDGIDDFVSGVPRAARTLGMVYIYDGKNMSSLYNFTGEQMAAYFGFSVAATDINGDDYADVFIGAPLFMDRGSDGKLQEVGQVSVSLQRASGDFQTTKLNGFEVFARFGSAIAPLGDLDQDGFNDIAIAAPYGGEDKKGIVYIFNGRSTGLNAVPSQILEGQWAARSMPPSFGYSMKGATDIDKNGYPDLIVGAFGVDRAILYRARPVITVNAGLEVYPSILNQDNKTCSLPGTALKVSCFNVRFCLKADGKGVLPRKLNFQVELLLDKLKQKGAIRRALFLYSRSPSHSKNMTISRGGLMQCEELIAYLRDESEFRDKLTPITIFMEYRLDYRTAADTTGLQPILNQFTPANISRQAHILLDCGEDNVCKPKLEVSVDSDQKKIYIGDDNPLTLIVKAQNQGEGAYEAELIVSIPLQADFIGVVRNNEALARLSCAFKTENQTRQVVCDLGNPMKAGTQLLAGLRFSVHQQSEMDTSVKFDLQIQSSNLFDKVSPVVSHKVDLAVLAAVEIRGVSSPDHVFLPIPNWEHKENPETEEDVGPVVQHIYELRNNGPSSFSKAMLHLQWPYKYNNNTLLYILHYDIDGPMNCTSDMEINPLRIKISSLQTTEKNDTVAGQGERDHLITKRDLALSEGDIHTLGCGVAQCLKIVCQVGRLDRGKSAILYVKSLLWTETFMNKENQNHSYSLKSSASFNVIEFPYKNLPIEDITNSTLVTTNVTWGIQPAPMPVPVWVI", "chain 2": "GPNICTTRGVSSCQQCLAVSPMCAWCSDEALPLGSPRCDLKENLLKDNCAPESIEFPVSEARVLEDRPLSDKGSGDSSQVTQVSPQRIALRLRPDDSKNFSIQVRQVEDYPVDIYYLMDLSYSMKDDLWSIQNLGTKLATQMRKLTSNLRIGFGAFVDKPVSPYMYISPPEALENPCYDMKTTCLPMFGYKHVLTLTDQVTRFNEEVKKQSVSRNRDAPEGGFDAIMQATVCDEKIGWRNDASHLLVFTTDAKTHIALDGRLAGIVQPNDGQCHVGSDNHYSASTTMDYPSLGLMTEKLSQKNINLIFAVTENVVNLYQNYSELIPGTTVGVLSMDSSNVLQLIVDAYGKIRSKVELEVRDLPEELSLSFNATCLNNEVIPGLKSCMGLKIGDTVSFSIEAKVRGCPQEKEKSFTIKPVGFKDSLIVQVTFDCDCACQAQAEPNSHRCNNGNGTFECGVCRCGPGWLGSQCECSEEDYRPSQQDECSPREGQPVCSQRGECLCGQCVCHSSDFGKITGKYCECDDFSCVRYKGEMCSGHGQCSCGDCLCDSDWTGYYCNCTTRTDTCMSSNGLLCSGRGKCECGSCVCIQPGSYGDTCEKCPTCPDACTFKKECVECKKFDRGALHDENTCNRYCRDEIESVKELKDTGKDAVNCTYKNEDDCVVRFQYYEDSSGKSILYVVEEPECPKGPDILVV"}}, "key": {"[1]": {"target": "full-length WT αVβ3 stably expressed on K562 cells (human, UniProt P06756;P05106)", "test": "flow cytometry on cells"}, "[2]": {"target": "1TM-αVβ3 (human, UniProt P06756;P05106)", "test": "SEC"}, "[3]": {"target": "FN7–10 (fibronectin type III domains 7–10) (human, UniProt P02751-1 1173-1540)", "test": "SEC"}}, "data": [{"binder": "B1", "values": [{"measurement": "binding result", "setting": "[1]", "value": "binds"}, {"measurement": "binding result", "setting": "[2]", "value": "binds"}]}, {"binder": "B2", "values": [{"measurement": "stoichiometry N", "setting": "[3]", "value": "~1", "unit": "integrin/FN molar ratio"}]}]}
